{"source": "patent US20190367612A1", "about": "(Daiichi Sankyo, published 2019)", "key": {"[1]": {"target": "T1, human GPRC5D (human, UniProt Q9NZD1 1-345)", "T1 construct": "whole, on cells; also called hGPRC5D; G-protein coupled receptor family C group 5 member D", "T1 sequence (Q9NZD1 whole entry)": "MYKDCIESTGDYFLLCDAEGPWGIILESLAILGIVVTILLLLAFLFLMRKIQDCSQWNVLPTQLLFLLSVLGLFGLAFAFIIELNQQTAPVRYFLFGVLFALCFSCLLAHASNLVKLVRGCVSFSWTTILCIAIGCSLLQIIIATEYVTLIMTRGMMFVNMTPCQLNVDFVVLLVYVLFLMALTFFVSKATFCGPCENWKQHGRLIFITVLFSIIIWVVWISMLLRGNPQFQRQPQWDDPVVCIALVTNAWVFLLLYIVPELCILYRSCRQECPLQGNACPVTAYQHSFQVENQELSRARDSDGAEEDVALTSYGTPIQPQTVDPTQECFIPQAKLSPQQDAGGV", "assay": "flow cytometry on A4/Fuk cells (endogenous human GPRC5D), Penta-His Alexa Fluor 488 detection, rMFI = MFI minus sample without antibody", "procedure": "Lymphoma cell line A4/Fuk cells (JCRB Cell Bank) were adjusted to an appropriate concentration with PBS containing 5% FBS. LIVE/DEAD Fixable Near-IR Dead Cell Stain Kit was added to the cells, which were then left standing at 4° C. for 30 minutes. The cells were washed twice with PBS containing 5% FBS, then adjusted to a concentration of 1×10⁶ cells/mL with PBS containing 5% FBS, inoculated in an amount of 100 μL/well to a 96-well U-bottomed microplate, and centrifuged to remove a supernatant. Each anti-GPRC5D-anti-CD3 bispecific molecule (C2037-C3E7034 to C3022-C3E7036 prepared in Example 12) diluted with PBS containing 5% FBS were added thereto in an amount of 100 μL/well, and the plate was left standing at 4° C. for 60 minutes. The cells were washed twice with PBS containing 5% FBS. Then, Penta-His Alexa Fluor 488 diluted with PBS containing 5% FBS was added thereto in an amount of 30 μL/well, and the plate was left standing at 4° C. for 30 minutes. The cells were washed twice with PBS containing 5% FBS and then resuspended in PBS containing 5% FBS, followed by detection using a flow cytometer (FACSCanto™ II). The data was analyzed using Flowjo. The mean fluorescence intensity (MFI) of Alexa Fluor 488 in a fraction free from dead cells was calculated. The MFI value of the antibody-unsupplemented sample was subtracted from the MFI value of the antibody-supplemented sample to calculate a relative value of MFI (rMFI)."}, "[2]": {"target": "T1, human GPRC5D", "assay": "flow cytometry on KHM-1B cells (human GPRC5D), culture supernatant, PE anti-human IgG Fc, rMFI over human IgG isotype control", "procedure": "Human multiple myeloma cell line KHM-1B cells expressing GPRC5D were adjusted to a concentration of 2×10⁶ cells/mL with PBS containing 5% FBS, inoculated in an amount of 100 μL/well to a 96-well U-bottomed microplate, and centrifuged to remove a supernatant. The culture supernatant of each humanized anti-GPRC5D antibody obtained in Example 8)-3-1 or Human IgG isotype control antibody (Calbiochem/Merck Millipore Corp.) adjusted to 14 ng/mL to 30 μg/mL was added thereto in an amount of 100 μL/well, and the plate was left standing at 4° C. for 1 hour. The cells were washed twice with PBS containing 5% FBS. Then, R-Phycoerythrin AffiniPure F(ab′)2 Fragment Goat Anti-Human IgG, Fcγ Fragment Specific (Jackson ImmunoResearch Laboratories, Inc.) diluted 100-fold with PBS containing 5% FBS was added thereto in an amount of 100 μL/well, and the plate was left standing at 4° C. for 1 hour. The cells were washed twice with PBS containing 5% FBS and then resuspended in PBS containing 5% FBS, followed by detection using a flow cytometer (FACSCanto™ II; Becton, Dickinson and Company). The data was analyzed using Flowjo (Tree Star, Inc.). The PE fluorescence intensity of the cell fraction was plotted to a histogram, and the mean fluorescence intensity (MFI) was calculated. The MFI value of the control antibody was subtracted from the MFI value of the GPRC5D antibody to calculate a relative value of MFI (rMFI)."}}, "data": [{"binder": "anti-GPRC5D-anti-CD3 bispecific molecule C3048-C3E7035 (bispecific antibody, Tandem scFv) scFv: GQVQLVQSGAEVKKPGSSVKVSCKASGGTFSRYAISWVRQAPGQGLEWMGGIIPIFGTANYAQKFQGRVTITADQSTRTAYMDLGRLRSEDTAVYYCALEGFRDSLKRNPFDIWGQGTMVTVSSGGGGSGGGGSGGGGSQSVVTQPPSVSAAPGQKVTISCSGGTTNIGSNYVSWYQQLPGTAPKFLMYENNKRPSGIPDRFSGSKSGTSATLAITGLQTGDEATYYCSTWDSSLNTGLFGGGTKLTVLGGGGSEVQLVESGGGLVQPGGSLRLSCAASGVTFNYYGMSWIRQAPGKGLEWVASITNSGGRIYYPDSVKGRFTISRENTQKTLYLQMNSLRAEDTAVYYCTLDGRDGWVAYWGQGTLVTVSSGGGGSGGGGSGGGGSMAQAVLTQPSSVSGVPGQRVTISCKRNTGNIGSNYVNWYQQLPGTAPKLLIYRDDKRPSGVPDRFSGSKSGTSASLAITGFQAEDEADYYCQSYSSGFIFGGGTKLTVLGAAAGAGGDYKDDDDKGAAAHHHHHH", "values": [{"measurement": "binding result", "setting": "[1]", "value": "binds"}]}, {"binder": "humanized anti-GPRC5D antibody h2B1_H4/L5 (antibody, human IgG1, kappa, V domains shown, Human IgG1 / kappa) VH: QVTLKESGPALVKPTQTLTLTCTFSGFSLNTYDMGVGWIRQPPGKGLEWLANIWWDDDKYYSPSLKSRLTITKDTSNNQAVLTMTNMDPVDTATYYCARIETVRVSRKGFAHWGQGTLVTVSS VL: ATRMTQSPSSFSASTGDRVTITCKASQSVGINVDWYQQKPGKSPKLLIYGASNRHTGVPSRFSGSGFGRDFTLTISSLQSEDFATYYCLQHGSIPPTFGGGTKVEIKR", "values": [{"measurement": "binding result", "setting": "[2]", "value": "binds"}]}, {"binder": "anti-GPRC5D-anti-CD3 bispecific molecule C3022-C3E7035 (bispecific antibody, Tandem scFv) scFv: GQVQLVQSGAEVKKPGASVKVSCKASGYTFTGYYMHWVRQAPGQGLEWMGRINPNSGGTNYAQKFQGRVTMTRDTSISTAYMELSGLRSDDTAVYYCASGSVRHPWGQGTLVTVSSGGGGSGGGGSGGGGSQPVLTQPPSASGTPGQRVTISCSGSRSNIGGNIVSWYQQFPGTAPRLLTYADNQRPSGVPDRFSGSKSGTSASLAISGLQSEDEADYYCAAWDDSLNGVVFGGGTKLTVLGGGGSEVQLVESGGGLVQPGGSLRLSCAASGVTFNYYGMSWIRQAPGKGLEWVASITNSGGRIYYPDSVKGRFTISRENTQKTLYLQMNSLRAEDTAVYYCTLDGRDGWVAYWGQGTLVTVSSGGGGSGGGGSGGGGSMAQAVLTQPSSVSGVPGQRVTISCKRNTGNIGSNYVNWYQQLPGTAPKLLIYRDDKRPSGVPDRFSGSKSGTSASLAITGFQAEDEADYYCQSYSSGFIFGGGTKLTVLGAAAGAGGDYKDDDDKGAAAHHHHHH", "values": [{"measurement": "binding result", "setting": "[1]", "value": "binds"}]}, {"binder": "humanized anti-GPRC5D antibody h2B1_H2/L3 (antibody, human IgG1, kappa, V domains shown, Human IgG1 / kappa) VH: QVQLVESGGGLVKPSQTLSLTCTFSGFSLNTYDMGVGWIRQPPGKGLEWIGNIWWDDDKYYNPSLKSRVTISKDTSNNQASLKLSSVTAADTAVYYCARIETVRVSRKGFAHWGQGTLVTVSS VL: DTVMTQSPDSLAVSLGERATINCKASQSVGINVDWYQQKPGQPPKLLIYGASNRHTGVPDRFSGSGFGRDFTLTISSLQAEDVAVYYCLQHGSIPPTFGQGTKVEIKR", "values": [{"measurement": "binding result", "setting": "[2]", "value": "binds"}]}, {"binder": "humanized anti-GPRC5D antibody h2B1_H4/L3 (antibody, human IgG1, kappa, V domains shown, Human IgG1 / kappa) VH: QVTLKESGPALVKPTQTLTLTCTFSGFSLNTYDMGVGWIRQPPGKGLEWLANIWWDDDKYYSPSLKSRLTITKDTSNNQAVLTMTNMDPVDTATYYCARIETVRVSRKGFAHWGQGTLVTVSS VL: DTVMTQSPDSLAVSLGERATINCKASQSVGINVDWYQQKPGQPPKLLIYGASNRHTGVPDRFSGSGFGRDFTLTISSLQAEDVAVYYCLQHGSIPPTFGQGTKVEIKR", "values": [{"measurement": "binding result", "setting": "[2]", "value": "binds"}]}, {"binder": "humanized anti-GPRC5D antibody h2B1_H2/L5 (antibody, human IgG1, kappa, V domains shown, Human IgG1 / kappa) VH: QVQLVESGGGLVKPSQTLSLTCTFSGFSLNTYDMGVGWIRQPPGKGLEWIGNIWWDDDKYYNPSLKSRVTISKDTSNNQASLKLSSVTAADTAVYYCARIETVRVSRKGFAHWGQGTLVTVSS VL: ATRMTQSPSSFSASTGDRVTITCKASQSVGINVDWYQQKPGKSPKLLIYGASNRHTGVPSRFSGSGFGRDFTLTISSLQSEDFATYYCLQHGSIPPTFGGGTKVEIKR", "values": [{"measurement": "binding result", "setting": "[2]", "value": "binds"}]}, {"binder": "humanized anti-GPRC5D antibody h2B1_H3/L3 (antibody, human IgG1, kappa, V domains shown, Human IgG1 / kappa) VH: QVQLVESGGGLVKPSQTLSLTCTFSGFSLNTYDMGVGWIRQPPGKGLEWIANIWWDDDKYYNPSLKSRVTISKDTSNNQASLKLSSVTAADTAVYYCARIETVRVSRKGFAHWGQGTLVTVSS VL: DTVMTQSPDSLAVSLGERATINCKASQSVGINVDWYQQKPGQPPKLLIYGASNRHTGVPDRFSGSGFGRDFTLTISSLQAEDVAVYYCLQHGSIPPTFGQGTKVEIKR", "values": [{"measurement": "binding result", "setting": "[2]", "value": "binds"}]}, {"binder": "humanized anti-GPRC5D antibody h2B1_H2/L4 (antibody, human IgG1, kappa, V domains shown, Human IgG1 / kappa) VH: QVQLVESGGGLVKPSQTLSLTCTFSGFSLNTYDMGVGWIRQPPGKGLEWIGNIWWDDDKYYNPSLKSRVTISKDTSNNQASLKLSSVTAADTAVYYCARIETVRVSRKGFAHWGQGTLVTVSS VL: DTVMTQSPDSLAVSLGERATINCKASQSVGINVDWYQQKPGQSPKLLIYGASNRHTGVPDRFSGSGFGRDFTLTISSLQAEDVAVYYCLQHGSIPPTFGQGTKVEIKR", "values": [{"measurement": "binding result", "setting": "[2]", "value": "binds"}]}, {"binder": "humanized anti-GPRC5D antibody h2B1_H1/L1 (antibody, human IgG1, kappa, V domains shown, Human IgG1 / kappa) VH: QVQLVESGGGLVKPSQTLSLTCTFSGFSLNTYDMGVGWIRQPPGKGLEWIGNIWWDDDKYYNPSLKSRVTISVDTSKNQASLKLSSVTAADTAVYYCARIETVRVSRKGFAHWGQGTLVTVSS VL: DTVMTQSPDSLAVSLGERATINCKASQSVGINVDWYQQKPGQPPKLLIYGASNRHTGVPDRFSGSGSGRDFTLTISSLQAEDVAVYYCLQHGSIPPTFGQGTKVEIKR", "values": [{"measurement": "binding result", "setting": "[2]", "value": "binds"}]}, {"binder": "humanized anti-GPRC5D antibody h2B1_H4/L1 (antibody, human IgG1, kappa, V domains shown, Human IgG1 / kappa) VH: QVTLKESGPALVKPTQTLTLTCTFSGFSLNTYDMGVGWIRQPPGKGLEWLANIWWDDDKYYSPSLKSRLTITKDTSNNQAVLTMTNMDPVDTATYYCARIETVRVSRKGFAHWGQGTLVTVSS VL: DTVMTQSPDSLAVSLGERATINCKASQSVGINVDWYQQKPGQPPKLLIYGASNRHTGVPDRFSGSGSGRDFTLTISSLQAEDVAVYYCLQHGSIPPTFGQGTKVEIKR", "values": [{"measurement": "binding result", "setting": "[2]", "value": "binds"}]}, {"binder": "humanized anti-GPRC5D antibody h2B1_H4/L4 (antibody, human IgG1, kappa, V domains shown, Human IgG1 / kappa) VH: QVTLKESGPALVKPTQTLTLTCTFSGFSLNTYDMGVGWIRQPPGKGLEWLANIWWDDDKYYSPSLKSRLTITKDTSNNQAVLTMTNMDPVDTATYYCARIETVRVSRKGFAHWGQGTLVTVSS VL: DTVMTQSPDSLAVSLGERATINCKASQSVGINVDWYQQKPGQSPKLLIYGASNRHTGVPDRFSGSGFGRDFTLTISSLQAEDVAVYYCLQHGSIPPTFGQGTKVEIKR", "values": [{"measurement": "binding result", "setting": "[2]", "value": "binds"}]}, {"binder": "humanized anti-GPRC5D antibody h2B1_H3/L4 (antibody, human IgG1, kappa, V domains shown, Human IgG1 / kappa) VH: QVQLVESGGGLVKPSQTLSLTCTFSGFSLNTYDMGVGWIRQPPGKGLEWIANIWWDDDKYYNPSLKSRVTISKDTSNNQASLKLSSVTAADTAVYYCARIETVRVSRKGFAHWGQGTLVTVSS VL: DTVMTQSPDSLAVSLGERATINCKASQSVGINVDWYQQKPGQSPKLLIYGASNRHTGVPDRFSGSGFGRDFTLTISSLQAEDVAVYYCLQHGSIPPTFGQGTKVEIKR", "values": [{"measurement": "binding result", "setting": "[2]", "value": "binds"}]}, {"binder": "humanized anti-GPRC5D antibody h2B1_H3/L5 (antibody, human IgG1, kappa, V domains shown, Human IgG1 / kappa) VH: QVQLVESGGGLVKPSQTLSLTCTFSGFSLNTYDMGVGWIRQPPGKGLEWIANIWWDDDKYYNPSLKSRVTISKDTSNNQASLKLSSVTAADTAVYYCARIETVRVSRKGFAHWGQGTLVTVSS VL: ATRMTQSPSSFSASTGDRVTITCKASQSVGINVDWYQQKPGKSPKLLIYGASNRHTGVPSRFSGSGFGRDFTLTISSLQSEDFATYYCLQHGSIPPTFGGGTKVEIKR", "values": [{"measurement": "binding result", "setting": "[2]", "value": "binds"}]}, {"binder": "humanized anti-GPRC5D antibody h2B1_H2/L2 (antibody, human IgG1, kappa, V domains shown, Human IgG1 / kappa) VH: QVQLVESGGGLVKPSQTLSLTCTFSGFSLNTYDMGVGWIRQPPGKGLEWIGNIWWDDDKYYNPSLKSRVTISKDTSNNQASLKLSSVTAADTAVYYCARIETVRVSRKGFAHWGQGTLVTVSS VL: DTVMTQSPDSLAVSLGERATINCKASQSVGINVDWYQQKPGQPPKLLIYGASNRHTGVPDRFSGSGFGTDFTLTISSLQAEDVAVYYCLQHGSIPPTFGQGTKVEIKR", "values": [{"measurement": "binding result", "setting": "[2]", "value": "binds"}]}]}
